{
  "source": "patent US9598677B2",
  "about": "“Use of human biliverdin reductase and fragments thereof for the treatment of protein kinase C-delta and ERK related conditions” (University of Rochester, priority 2009, dated 2017)",
  "key": {"Elk1": {"tested_on": "Elk1", "test": "Elk1-luciferase reporter assay", "assay_type": "cell-based, human", "settings": "myristoylated peptide 2 h prior to PMA, control PMA-treated cells, FIG. 10C", "protocol": "Elk1-luciferase reporter assay: Cells were co-transfected with the reporters pFA2-Elk1, pFR-Luc (Stratagene, La Jolla, Calif.) and pCMV-β-galactosidase, and other plasmids, as necessary. Cells were lysed; promoter activity was determined by luciferase assay and normalized on β-galactosidase."}, "recombinant human PKC-δ [1]": {"tested_on": "recombinant human PKC-δ", "settings": "Nishikawa et al. 1997; read-out: reported Km for the commercial substrate; cited from earlier work"}, "recombinant human PKC-δ [2]": {"tested_on": "recombinant human PKC-δ", "test": "PKC-δ kinase assay in vitro (p81 filter / autoradiography)", "assay_type": "biochemical", "protocol": "Measurement of PKC-δ activity: In vitro kinase activity assays were performed with active recombinant human PKC-δ kinase (as a GST fusion protein). PKC-δ assay in vitro was performed using 5 ng purified enzyme in a 50 μl assay containing 50 mM HEPES pH 7.4, 10 mM MgCl2, 0.2 mM DTT, sonicated lipid activators (0.5 μg phosphatidylserine and 0.05 μg diacylglycerol) or lipid activators plus PMA (as indicated in appropriate experiments) and PKC-δ substrates. The reaction was started by the addition of 50 μM ATP labeled with 5 μCi [γ-^32P]-ATP. Incubation was performed for 15 min at 30° C., unless otherwise stated. The reaction was terminated on ice, either by the addition of Laemmli buffer followed by SDS-PAGE, transferred to PVDF membrane, and autoradiography, or by the addition of 1 volume 10% phosphoric acid for p81 transfer as described below. For autophosphorylation of PKC-δ 20 μM ATP was used to start the 40-min reaction.\nWhen hBVR or its mutants were tested for their effect on PKC-δ activity, they were pre-incubated for 5 min at room temperature with the PKC prior to substrate addition. The hBVR-derived peptides were used at concentrations indicated in appropriate figures.\nWhen hBVR or its mutants were assayed as the sole substrates for PKC, the incubation conditions were as described above and the incubation was for 40 min at 30° C. unless specified otherwise. The reaction was terminated by the addition of Laemmli buffer, and the reaction products were detected by SDS-PAGE, transfer to PVDF membrane, and autoradiography.\nMeasurement of PKC-δ activity: PKC-δ assay in vitro was performed using 0.1 ng/μl purified recombinant human PKC-δ kinase with reaction conditions specified by the manufacturer. Effector molecules such as hBVR or peptides were added 5 min prior to substrate. The reaction was started by the addition of [γ-^32P]-ATP (Lerner-Marmarosh et al., “Human Biliverdin Reductase: A Member of the Insulin Receptor Substrate Family with Serine/Threonine/Tyrosine Kinase Activity,” Proc. Natl. Acad. Sci. U.S.A. 102(20):7109-7114 (2005), which is hereby incorporated by reference in its entirety). Reaction products were detected either by gel electrophoresis and autoradiography or by the p81 filter assay. PKC-δ activity on agarose beads was also measured. Cell lysates were immunoprecipitated with anti-PKC-δ antibody followed by protein A/G agarose. The immunoprecipitates were used in kinase reactions containing 50 μM PKC-δ specific peptide substrate as above; incorporation of ^32P was measured by p81 method."}, "PKC-δ": {"biological_target": "PKC-δ (Homo sapiens, UniProt Q05655)", "sequence (Q05655 whole entry)": "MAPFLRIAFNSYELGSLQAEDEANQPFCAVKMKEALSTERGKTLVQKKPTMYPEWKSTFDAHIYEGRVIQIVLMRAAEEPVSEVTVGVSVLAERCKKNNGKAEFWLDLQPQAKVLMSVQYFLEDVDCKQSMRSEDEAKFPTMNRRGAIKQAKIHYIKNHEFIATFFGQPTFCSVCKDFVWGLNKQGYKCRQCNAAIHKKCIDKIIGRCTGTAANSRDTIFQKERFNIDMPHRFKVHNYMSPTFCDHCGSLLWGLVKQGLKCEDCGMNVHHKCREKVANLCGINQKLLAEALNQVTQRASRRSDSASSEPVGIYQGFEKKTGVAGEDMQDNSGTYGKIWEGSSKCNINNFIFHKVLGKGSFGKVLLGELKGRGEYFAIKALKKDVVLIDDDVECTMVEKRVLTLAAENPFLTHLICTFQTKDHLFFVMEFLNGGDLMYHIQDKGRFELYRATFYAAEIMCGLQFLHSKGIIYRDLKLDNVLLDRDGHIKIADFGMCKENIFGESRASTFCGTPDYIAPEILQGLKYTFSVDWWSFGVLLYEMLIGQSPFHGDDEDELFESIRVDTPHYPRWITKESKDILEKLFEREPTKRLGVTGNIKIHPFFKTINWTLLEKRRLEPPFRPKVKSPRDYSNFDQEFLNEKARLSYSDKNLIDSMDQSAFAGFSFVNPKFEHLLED", "test": "GST-hBVR pull-down of PKC-δ from cell lysate", "assay_type": "binding", "set-up": "The human PKC-δ open reading frame was also cloned in the same vectors; expressed in transfected cells; host or cells: HEK 293A (PKC-δ); E. coli, pGEX-4T2 (GST-hBVR)", "settings": "30 min and 120 min incubation, FIG. 2A", "protocol": "Cell Culture, infection, transfection, GST pull-down and co-immunoprecipitation: HEK 293A cells were grown in Dulbecco's Modified Eagle Medium (Invitrogen) containing 10% fetal bovine serum and 1% penicillin-G/streptomycin for 24 h or until the cells reached 70% confluency. Depending on the experiment, cells were subsequently transfected with up to 5 μg of pcDNA3-hBVR or pcDNA3-PKC-δ plasmid using Transfectin Lipid Reagent (Bio-Rad, Hercules, Calif.) in 10 cm plates. Western blotting determined overexpression of hBVR or PKC-δ. To prepare si-hBVR or sc-hBVR (containing a randomized variant of the sihBVR sequence), pSuper-Retro-si-hBVR (Miralem et al., “Small Interference RNA-Mediated Gene Silencing of Human Biliverdin Reductase, But Not That of Heme Oxygenase-1, Attenuates Arsenite-Mediated Induction of the Oxygenase and Increases Apoptosis in 293A Kidney Cells,” J. Biol. Chem. 280:17084-17092 (2005), which is hereby incorporated by reference in its entirety) or sc-hBVR, respectively, were introduced into 293A cells for packaging, and the si-hBVR or sc-hBVR retrovirus were titrated using NIH3T3 cells. […] Proteins were separated by SDS-page and detected by immunoblotting using anti-PKC-δ antibodies."}},
  "note": "Entries after “also recorded” stand apart in the source; their conditions may differ. Ends that are not written are not given here.",
  "data": [
    {"molecule": "SAFAGFSFVNPKFEHLLED (also: myristoylation, place not given here) [myristoylated PKC-δ bulky Ring motif C-terminal peptide]", "values": [
      {"measurement": "inhibition of Elk1 dependent luciferase expression", "setting": "Elk1", "value": 90, "unit": "%"}
    ]},
    {"molecule": "ARRKRKGSFFGG (PKC-delta substrate) [commercial peptide identified by Nishikawa as the optimal substrate for PKC-δ]", "values": [
      {"measurement": "Km", "setting": "recombinant human PKC-δ [1]", "value": 980, "unit": "nM"}
    ]},
    {"molecule": "hBVR: purified E. coli expressed human biliverdin reductase (protein, GST tag; Homo sapien, purified E. coli expressed human biliverdin reductase) MNAEPERKFGVVVVGVGRAGSVRMRDLRNPHPSSAFLNLIGFVSRRELGSIDGVQQISLEDALSSQEVEVAYICSESSSHEDYIRQFLNAGKHVLVEYPMTLSLAAAQELWELAEQKGKVLHEEHVELLMEEFAFLKKEVVGKDLLKGSLLFTSDPLEEDRFGFPAFSGISRLTWLVSLFGELSLVSATLEERKEDQYMKMTVCLETEKKSPLSWIEEKGPGLKRNRYLSFHFKSGSLENVPNVGVNKNIFLKDQNIFVQKLLGQFSEKELAAEKKRILHCLGLAEEIQKYCCSRK", "values": [
      {"measurement": "PKC-δ kinase activity toward MBP in presence of hBVR", "setting": "recombinant human PKC-δ [2]; 2 μg GST-hBVR, 12.5 μM MBP, FIG. 1B", "value": "increased kinase activity"},
      {"measurement": "PKC-δ autophosphorylation in presence of hBVR", "setting": "recombinant human PKC-δ [2]; FIGS. 1A, 1C, 7C", "value": "enhanced; also recorded: increased"},
      {"measurement": "binding of PKC-δ from cell lysates", "setting": "PKC-δ", "value": "selectively bound PKC-δ"}
    ]}
  ]
}
